Reference: patent US20210179716A1 (Pfizer, published 2021)
Positions count from the first letter of the chain named.

B1: CD47_P01A08_parent (antibody, V domains shown)
VH: QVQLVQSGAEVKKPGSSVKVSCKASGYTFSNYAITWVRQAPGQGLEWMGGISPIFGTANYAQKFQGRVTITADESTSTAYMELSSLRSEDTAVYYCARDGGRSSDGGWRGAGMDYWGQGTLVTVSS
VL: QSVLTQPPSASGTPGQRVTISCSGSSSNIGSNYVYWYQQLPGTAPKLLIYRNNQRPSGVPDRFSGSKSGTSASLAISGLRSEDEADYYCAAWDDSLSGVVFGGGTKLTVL
B2: CD47_P14D04_parent (antibody, V domains shown)
VH: EVQLLESGGGLVQPGGSLRLSCAASGFSFSTFTMNWVRQAPGKGLEWVSTISGTGGNTYYADSVKGRFTISRDNSKNTLYLQMNSLRAEDTAVYYCARRRSTVGSNGHSYWFDYWGQGTLVTVSS
VL: not shown
B3: PDL1_P06B05_245 (antibody, V domains shown)
VH: EVQLVESGGGLVKPGGSLRLSCAASGFTFSNAWMNWVRQAPGKGLEWVGRIKTKADGGTTDYAAPVKGRFTISRDDSKNTLYLQMNSLKTEDTAVYYCTTDPGEYWDSVYGGMDYWGQGTLVTVSS
VL: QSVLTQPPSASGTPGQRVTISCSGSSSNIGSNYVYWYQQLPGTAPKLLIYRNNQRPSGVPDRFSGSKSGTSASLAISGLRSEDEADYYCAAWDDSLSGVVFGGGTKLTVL
notes: Monospecific antibody; also called anti-PD-L1 antibody P06B05_245
B4: PDL1_P04D09_113 (antibody, V domains shown)
VH: EVQLLESGGGLVQPGGSLRLSCAASGFTFSSYAMSWVRQAPGKGLEWVSAIGVRGGITYYADSVKGRFTISRDNSKNTLYLQMNSLRAEDTAVYYCARERSVGELVGIDQMDHWGQGTLVTVSS
VL: not shown
B5: PDL1_P06B05_parent (antibody, V domains shown)
VH: B3 VH with E104S
VL: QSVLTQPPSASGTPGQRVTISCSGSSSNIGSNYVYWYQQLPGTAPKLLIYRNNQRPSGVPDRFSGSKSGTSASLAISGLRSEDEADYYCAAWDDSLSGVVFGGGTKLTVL
B6: PDL1_P04D09_parent (antibody, V domains shown)
VH: B4 VH with Q110W
VL: not shown
B7: PDL1_P06A09_parent (antibody, V domains shown)
VH: EVQLVESGGGLVKPGGSLRLSCAASGFTFSNAWMNWVRQAPGKGLEWVGRIKSESDGGTTDYAAPVKGRFTISRDDSKNTLYLQMNSLKTEDTAVYYCTTDYRIDDWGYPYPGMDYWGQGTLVTVSS
VL: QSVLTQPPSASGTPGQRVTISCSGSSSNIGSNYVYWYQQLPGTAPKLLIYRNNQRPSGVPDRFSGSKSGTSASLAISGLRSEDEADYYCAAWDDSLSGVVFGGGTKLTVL
B8: P01A11_Y27G_N31S_L54I_G100A_M113L (antibody, V domains shown)
VH: QVQLVQSGAEVKKPGSSVKVSCKASGGTFTSYAISWVRQAPGQGLEWMGGISPIFGTANYAQKFQGRVTITADESTSTAYMELSSLRSEDTAVYYCARDAGRSSDVGWYVGALDVWGQGTLVTVSS
VL: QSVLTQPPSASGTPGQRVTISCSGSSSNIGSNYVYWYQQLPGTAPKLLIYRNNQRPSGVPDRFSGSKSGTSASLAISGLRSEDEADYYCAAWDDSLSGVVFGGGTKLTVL
notes: Variant of P01A11
B9: P06B05_S104H (antibody, V domains shown)
VH: B3 VH with E104H
VL: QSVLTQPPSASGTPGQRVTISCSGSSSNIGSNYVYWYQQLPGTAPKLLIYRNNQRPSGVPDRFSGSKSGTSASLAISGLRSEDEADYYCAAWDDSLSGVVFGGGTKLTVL
notes: Variant of P06B05
B10: P06B05_G112A (antibody, V domains shown)
VH: B3 VH with E104S, G112A
VL: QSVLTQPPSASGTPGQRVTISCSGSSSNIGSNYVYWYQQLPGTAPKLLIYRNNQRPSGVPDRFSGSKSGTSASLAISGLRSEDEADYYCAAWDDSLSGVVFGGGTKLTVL
notes: Variant of P06B05
B11: P06B05_D61E_Y62E (antibody, V domains shown)
VH: B3 VH with D61E, Y62E, E104S
VL: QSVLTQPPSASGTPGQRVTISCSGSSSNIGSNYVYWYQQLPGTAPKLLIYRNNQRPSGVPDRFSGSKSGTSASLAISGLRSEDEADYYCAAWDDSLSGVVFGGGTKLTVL
notes: Variant of P06B05
B12: P06B05_S104E (antibody, V domains shown)
VH: B3 VH
VL: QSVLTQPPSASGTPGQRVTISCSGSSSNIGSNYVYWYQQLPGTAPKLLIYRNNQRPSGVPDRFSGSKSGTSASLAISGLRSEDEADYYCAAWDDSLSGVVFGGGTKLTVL
notes: Variant of P06B05
B13: P06B05_M113L (antibody, V domains shown)
VH: B3 VH with E104S, M113L
VL: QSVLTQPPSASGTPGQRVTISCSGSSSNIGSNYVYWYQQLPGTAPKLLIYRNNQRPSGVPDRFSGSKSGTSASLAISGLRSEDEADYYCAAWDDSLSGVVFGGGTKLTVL
notes: Variant of P06B05
B14: P06B05_D61S_Y62A (antibody, V domains shown)
VH: B3 VH with D61S, Y62A, E104S
VL: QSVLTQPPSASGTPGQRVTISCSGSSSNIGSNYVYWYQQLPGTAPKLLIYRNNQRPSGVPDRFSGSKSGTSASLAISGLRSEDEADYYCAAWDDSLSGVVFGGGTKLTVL
notes: Variant of P06B05
B15: P06B05_G103I (antibody, V domains shown)
VH: B3 VH with G103I, E104S
VL: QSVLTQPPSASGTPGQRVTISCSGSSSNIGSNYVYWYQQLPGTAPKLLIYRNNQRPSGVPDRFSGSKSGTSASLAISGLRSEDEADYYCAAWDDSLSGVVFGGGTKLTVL
notes: Variant of P06B05
B16: P06B05_Y105H (antibody, V domains shown)
VH: B3 VH with E104S, Y105H
VL: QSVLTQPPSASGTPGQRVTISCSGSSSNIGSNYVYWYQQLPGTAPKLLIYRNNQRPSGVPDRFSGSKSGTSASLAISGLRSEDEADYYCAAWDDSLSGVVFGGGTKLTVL
notes: Variant of P06B05
B17: P06B05_V109S (antibody, V domains shown)
VH: B3 VH with E104S, V109S
VL: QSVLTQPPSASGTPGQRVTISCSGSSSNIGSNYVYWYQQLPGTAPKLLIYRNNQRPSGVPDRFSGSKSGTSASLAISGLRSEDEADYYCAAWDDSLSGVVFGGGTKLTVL
notes: Variant of P06B05
B18: P06B05_D61S_Y62Q (antibody, V domains shown)
VH: B3 VH with D61S, Y62Q, E104S
VL: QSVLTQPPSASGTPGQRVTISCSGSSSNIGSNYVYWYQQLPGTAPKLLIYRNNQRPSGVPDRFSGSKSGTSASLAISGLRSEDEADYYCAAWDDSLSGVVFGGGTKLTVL
notes: Variant of P06B05
B19: P06B05_G112S (antibody, V domains shown)
VH: B3 VH with E104S, G112S
VL: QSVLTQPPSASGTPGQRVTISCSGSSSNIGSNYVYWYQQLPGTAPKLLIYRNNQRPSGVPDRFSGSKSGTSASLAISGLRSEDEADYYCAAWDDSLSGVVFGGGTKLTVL
notes: Variant of P06B05
B20: P06B05_D61A_Y62Q (antibody, V domains shown)
VH: B3 VH with D61A, Y62Q, E104S
VL: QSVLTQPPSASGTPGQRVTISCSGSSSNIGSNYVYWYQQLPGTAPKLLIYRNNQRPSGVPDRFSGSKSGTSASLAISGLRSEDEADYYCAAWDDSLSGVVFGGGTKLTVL
notes: Variant of P06B05
B21: P06B05_D61Q_Y62E (antibody, V domains shown)
VH: B3 VH with D61Q, Y62E, E104S
VL: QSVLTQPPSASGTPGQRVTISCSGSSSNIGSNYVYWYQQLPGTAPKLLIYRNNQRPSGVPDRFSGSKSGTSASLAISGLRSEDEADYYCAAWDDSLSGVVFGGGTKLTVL
notes: Variant of P06B05
B22: P06B05_D61Q_Y62S (antibody, V domains shown)
VH: B3 VH with D61Q, Y62S, E104S
VL: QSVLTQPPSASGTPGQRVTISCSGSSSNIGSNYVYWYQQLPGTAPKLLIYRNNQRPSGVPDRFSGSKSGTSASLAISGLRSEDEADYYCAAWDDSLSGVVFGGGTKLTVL
notes: Variant of P06B05
B23: P06B05_D56E_G57A (antibody, V domains shown)
VH: B3 VH with D56E, G57A, E104S
VL: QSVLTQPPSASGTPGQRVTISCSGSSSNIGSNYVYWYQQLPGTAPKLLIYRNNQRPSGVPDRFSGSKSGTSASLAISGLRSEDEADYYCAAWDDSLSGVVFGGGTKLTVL
notes: Variant of P06B05
B24: P06B05_D107S (antibody, V domains shown)
VH: B3 VH with E104S, D107S
VL: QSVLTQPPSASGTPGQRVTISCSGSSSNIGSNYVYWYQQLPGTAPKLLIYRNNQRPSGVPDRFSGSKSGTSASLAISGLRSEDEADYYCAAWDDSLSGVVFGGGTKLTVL
notes: Variant of P06B05
B25: P06B05_D107L (antibody, V domains shown)
VH: B3 VH with E104S, D107L
VL: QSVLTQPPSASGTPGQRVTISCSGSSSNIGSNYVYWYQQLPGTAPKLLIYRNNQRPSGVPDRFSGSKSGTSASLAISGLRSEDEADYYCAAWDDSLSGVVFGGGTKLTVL
notes: Variant of P06B05
B26: P06B05_D61A_Y62A (antibody, V domains shown)
VH: B3 VH with D61A, Y62A, E104S
VL: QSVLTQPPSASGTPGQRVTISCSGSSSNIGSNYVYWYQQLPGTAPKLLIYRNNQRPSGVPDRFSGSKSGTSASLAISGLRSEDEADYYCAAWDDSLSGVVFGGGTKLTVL
notes: Variant of P06B05
B27: P06B05_D61S_Y62S (antibody, V domains shown)
VH: B3 VH with D61S, Y62S, E104S
VL: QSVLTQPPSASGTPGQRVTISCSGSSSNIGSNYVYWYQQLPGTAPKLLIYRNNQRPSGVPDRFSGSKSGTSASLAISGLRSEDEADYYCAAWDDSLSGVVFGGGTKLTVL
notes: Variant of P06B05
B28: P06B05_D61A_Y62S (antibody, V domains shown)
VH: B3 VH with D61A, Y62S, E104S
VL: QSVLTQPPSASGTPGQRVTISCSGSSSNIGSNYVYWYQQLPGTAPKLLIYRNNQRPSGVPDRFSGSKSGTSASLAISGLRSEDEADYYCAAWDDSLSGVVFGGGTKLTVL
notes: Variant of P06B05
B29: P06B05_S104A (antibody, V domains shown)
VH: B3 VH with E104A
VL: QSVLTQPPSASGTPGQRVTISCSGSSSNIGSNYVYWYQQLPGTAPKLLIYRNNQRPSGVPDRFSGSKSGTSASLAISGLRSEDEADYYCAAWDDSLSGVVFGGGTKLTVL
notes: Variant of P06B05
B30: P06B05_D56E_G57E (antibody, V domains shown)
VH: B3 VH with D56E, G57E, E104S
VL: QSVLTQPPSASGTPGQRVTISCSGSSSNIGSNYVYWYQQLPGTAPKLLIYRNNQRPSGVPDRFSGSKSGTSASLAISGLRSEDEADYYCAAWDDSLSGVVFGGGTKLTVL
notes: Variant of P06B05
B31: P06B05_S104Y (antibody, V domains shown)
VH: B3 VH with E104Y
VL: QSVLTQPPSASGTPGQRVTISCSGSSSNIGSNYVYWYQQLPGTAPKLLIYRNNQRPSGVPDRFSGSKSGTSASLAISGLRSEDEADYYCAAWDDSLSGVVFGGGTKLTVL
notes: Variant of P06B05
B32: P06B05_D61A_Y62E (antibody, V domains shown)
VH: B3 VH with D61A, Y62E, E104S
VL: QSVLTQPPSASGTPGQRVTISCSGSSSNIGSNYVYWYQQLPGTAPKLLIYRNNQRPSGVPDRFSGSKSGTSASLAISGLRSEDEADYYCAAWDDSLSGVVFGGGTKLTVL
notes: Variant of P06B05
B33: P06B05_D107Y (antibody, V domains shown)
VH: B3 VH with E104S, D107Y
VL: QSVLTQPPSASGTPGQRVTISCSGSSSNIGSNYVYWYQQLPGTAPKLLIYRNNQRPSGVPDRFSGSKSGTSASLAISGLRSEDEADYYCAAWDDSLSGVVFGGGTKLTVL
notes: Variant of P06B05
B34: P06B05_S104I (antibody, V domains shown)
VH: B3 VH with E104I
VL: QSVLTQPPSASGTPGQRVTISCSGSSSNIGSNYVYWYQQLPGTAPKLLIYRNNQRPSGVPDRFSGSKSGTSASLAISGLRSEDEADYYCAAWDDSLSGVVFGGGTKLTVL
notes: Variant of P06B05

These binders were tested against T1, human CD47 protein (human, UniProt Q08722 19-139, limits assumed) (assay: half-life of the complex; method not stated).
T1 construct: Soluble protein used for the KD measurements; construct not described; also called hCD47; CD47 (human)
T1 sequence (Q08722 19-139 limits assumed): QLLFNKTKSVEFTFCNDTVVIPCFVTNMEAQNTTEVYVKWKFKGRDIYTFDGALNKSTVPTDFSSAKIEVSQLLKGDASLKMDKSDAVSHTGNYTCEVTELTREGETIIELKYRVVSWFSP

Binder	T1/2
B1	21.3 min
B2	3.6 min

The binders below were run against T2, cynomolgus CD47 protein (cynomolgus monkey, UniProt A0A2K5X523 19-139) (assay: half-life of the complex; method not stated).
T2 construct: also called cyCD47; Cyno CD47

Binder	T1/2
B1	20.2 min
B2	2.52 min

What follows are binders tested against T3, cynomolgus PD-L1 protein (cynomolgus monkey, UniProt G7PSE7 19-238) (assay: half-life of the complex; method not stated).
T3 construct: also called cyPD-L1; Cyno PD-L1
T3 sequence (G7PSE7 entry or part of it): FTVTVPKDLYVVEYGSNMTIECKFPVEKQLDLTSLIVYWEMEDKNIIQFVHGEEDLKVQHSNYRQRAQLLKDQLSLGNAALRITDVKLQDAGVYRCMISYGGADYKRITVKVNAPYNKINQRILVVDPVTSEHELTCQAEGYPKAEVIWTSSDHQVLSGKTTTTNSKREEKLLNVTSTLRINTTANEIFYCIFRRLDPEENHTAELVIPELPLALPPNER

Binder	T1/2
B3	23.7 min
B4	23.4 min

The binders below were run against T4, human PD-L1 protein (human, UniProt Q9NZQ7 19-238) (assay: half-life of the complex; method not stated).
T4 construct: Soluble protein used for the KD measurements; construct not described; also called hPD-L1; CD274
T4 sequence (Q9NZQ7 19-238 limits assumed): as the sequence (G7PSE7 entry or part of it) above, with T33A, S34A, N62S, Q68R, R82Q, L173F, A185T, I192T, L215H counted along it

Binder	T1/2
B3	23.4 min
B4	22.2 min

Target: T3, cynomolgus PD-L1 protein
Experiment: half-life of the complex; method not stated
Remark: another data set of the same source

Binder	T1/2
B5	10.2 min
B6	20.1 min
B7	2.79 min

Target: T4, human PD-L1 protein
Experiment: half-life of the complex; method not stated
Remark: another data set of the same source

Binder	T1/2
B5	28.2 min
B6	43.6 min
B7	5.13 min

The binders below were run against T1, human CD47 protein (assay: KD; method not stated).

Binder	Kd
B8	497 nM

What follows are binders tested against T2, cynomolgus CD47 protein (assay: KD; method not stated).

Binder	Kd
B8	704 nM

What follows are binders tested against T5, mouse PD-L1 protein (mouse, UniProt Q9EP73 19-238) (assay: column 'Cross with mouse?'; method not stated).
T5 construct: also called mPD-L1
T5 sequence (Q9EP73 19-238 limits assumed): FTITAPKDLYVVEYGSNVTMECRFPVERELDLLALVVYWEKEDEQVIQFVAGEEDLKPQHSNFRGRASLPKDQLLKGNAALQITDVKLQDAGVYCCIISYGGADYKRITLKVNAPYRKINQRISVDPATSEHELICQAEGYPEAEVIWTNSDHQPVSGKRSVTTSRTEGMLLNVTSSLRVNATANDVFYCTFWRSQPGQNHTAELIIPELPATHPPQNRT

Binder	Kd
B5	207 nM
B6	20.4 nM
B7	113 nM

What follows are binders tested against T3, cynomolgus PD-L1 protein (assay: KD; method not stated).

Binder	Kd
B5	3.11 nM
B9	6.11 nM
B10	3.72 nM
B11	8.39 nM
B12	0.45 nM
B13	6.55 nM
B14	< 1.19 nM
B15	8.11 nM
B16	6.58 nM
B17	> 100 nM
B18	3.73 nM
B19	1.74 nM
B20	4.96 nM
B21	4.43 nM
B22	5.54 nM
B23	92.2 nM
B24	26.3 nM
B25	83 nM
B26	3.67 nM
B27	2.15 nM
B28	2.75 nM
B29	3.93 nM
B30	60.6 nM
B31	5.79 nM
B32	3.17 nM
B33	3.23 nM
B34	0.99 nM

The binders below were run against T5, mouse PD-L1 protein (assay: KD; method not stated).

Binder	Kd
B10	131 nM
B12	23.1 nM
B19	77.7 nM
B23	> 1500 nM

Each binder was assayed against T4, human PD-L1 protein (assay: KD; method not stated).

Binder	Kd
B5	2.36 nM
B9	7.9 nM
B10	3.71 nM
B11	9.49 nM
B12	0.8 nM
B13	6.82 nM
B14	6.71 nM
B15	8.06 nM
B16	12.8 nM
B17	76.5 nM
B18	5.98 nM
B19	1.69 nM
B20	5.97 nM
B21	5.81 nM
B22	5.02 nM
B23	95.5 nM
B24	23.9 nM
B25	90.2 nM
B26	4.01 nM
B27	6.1 nM
B28	5.37 nM
B29	3.5 nM
B30	69.7 nM
B31	9.75 nM
B32	3.28 nM
B33	3.03 nM
B34	< 0.74 nM

Target: T1, human CD47 protein
Experiment: KD; method not stated
Remark: another data set of the same source

Binder	Kd
B1	1.72 nM
B2	6.39 nM

Target: T2, cynomolgus CD47 protein
Experiment: KD; method not stated
Remark: another data set of the same source

Binder	Kd
B1	2.08 nM
B2	9.7 nM

Target: T3, cynomolgus PD-L1 protein
Experiment: KD; method not stated
Remark: another data set of the same source

Binder	Kd
B3	1.6 nM
B4	1.7 nM

Target: T4, human PD-L1 protein
Experiment: KD; method not stated
Remark: another data set of the same source

Binder	Kd
B3	1.6 nM
B4	1.7 nM

Target: T3, cynomolgus PD-L1 protein
Experiment: KD; method not stated
Remark: another data set of the same source

Binder	Kd
B5	8.07 nM
B6	1.15 nM
B7	5.75 nM

Target: T4, human PD-L1 protein
Experiment: KD; method not stated
Remark: another data set of the same source

Binder	Kd
B5	4.42 nM
B6	0.56 nM
B7	2.97 nM
